Test [1] deals with T1, H3KC36me3 nucleosomes (recombinant MLA nucleosomes reconstituted on 601 DNA) (Drosophila, UniProt P02299 1-136; P84040 1-103; P84051 1-124; P02283 1-123, H3KC36me3, cysteine at 36 alkylated to a thioether mimic of trimethyl-lysine (H3KC36me3)). The test can be described thus: EMSA titration 1 (top).
For test [2], the target named is T1, H3KC36me3 nucleosomes (recombinant MLA …). The test can be described thus: EMSA titration 2 (bottom).

B1: GST-PWWP (PSIP1-PWWP domain, residues 3 to 100, GST fusion) (domain or fragment)
chain: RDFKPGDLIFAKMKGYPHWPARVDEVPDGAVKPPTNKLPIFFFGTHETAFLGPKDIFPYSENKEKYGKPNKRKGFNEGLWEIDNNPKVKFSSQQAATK
Turning to B1, the Kd was found to be 400 nM in test [1] and 600 nM in test [2].

The values are drawn from article PMC3663649 (2013).
